These are literature values, as cited in paper PMC9965408.

Usually Ki stands for a dissociation constant, usually derived from enzyme kinetics or from competition with a known ligand.

This data set addresses plasmin (Homo sapiens) (UniProt P00747).
UniProt P00747, sequence (P00747 581-810): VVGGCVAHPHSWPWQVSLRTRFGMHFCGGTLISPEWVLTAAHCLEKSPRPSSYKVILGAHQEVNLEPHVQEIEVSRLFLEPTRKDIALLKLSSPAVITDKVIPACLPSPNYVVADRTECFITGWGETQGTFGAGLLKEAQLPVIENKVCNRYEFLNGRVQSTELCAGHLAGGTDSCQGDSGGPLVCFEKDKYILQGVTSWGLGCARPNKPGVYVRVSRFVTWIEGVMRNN

On to AaTI (from UniProt Q177W0), for which the Ki was 7 µM.
